This passage reports protein stability index results from the supplement of paper PMC10567573.

Sequences and labels used below:
B1: RTN2 (parent)
chain: SERPLEDLRLRLDHLGWVARGTGS
B2: FAM50A (parent)
chain: KKREKQREQMEQMKQRIAEENIMK
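Also: lentivirally expressed fusions sorted by FACS into six bins by GFP to DsRed ratio, PSI derived from sequencing read proportions per bin multiplied by bin number.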

Variants of B1 are the subject of the first series. Briefly: protein stability index of a GFP-peptide fusion (GPS, HEK-293T) (PSI 1-6); higher = more stable. To be noted: c terminus: a fixed tail appended.
Turning to SEHPLEDLRLRLDHLGWVARGTGS, the protein stability index was 2.76.

For SEMPLEDLRLRLDHLGWVARGTGS, the protein stability index was 2.99.

For SEDPLEDLRLRLDHLGWVARGTGS, the protein stability index was 2.82.

Regarding SERPLEDLRLRLDMLGWVARGTGS, the protein stability index stood at 2.47.

SERPLEDLRLRLDELGWVARGTGS: the protein stability index came out at 2.61.

Regarding SERPLEDLRLRLDHLGWVARGHGS, the protein stability index amounted to 2.49.

Consider SERPLEDLRLRLDHLGWVARGCGS, for which the protein stability index is 2.75.

As to SERPLEDLRLRLDHLGWVARGYGS, the protein stability index was determined as 2.79.

SERPLEQLRLRLDHLGWVARGTGS: the protein stability index amounted to 1.43.

Take SERPLEALRLRLDHLGWVARGTGS: the protein stability index was found to be 1.94.

In the case of SERDLEDLRLRLDHLGWVARGTGS, the protein stability index is 2.53.

Take SERPLEDLRLRLDHLGWVARETGS: the protein stability index is 2.05.

For SERPLEDLRLRLDHLGWVARSTGS, the protein stability index was determined as 2.68.

Consider SERPLEDLRLRLDHLGWVARITGS, for which the protein stability index is 1.61.

With SERPLEDLRLRLDHLGWVARVTGS, the protein stability index came to 2.09.

On to SERPLEDLRLRLDHLGWVARGTGM, for which the protein stability index turned out to be 1.76.

Take SERPLEDLRLRLDHLGWVARGTHS: the protein stability index came to 2.6.

Regarding SERPMEDLRLRLDHLGWVARGTGS, the protein stability index is 2.46.

With SERPGEDLRLRLDHLGWVARGTGS, the protein stability index worked out at 2.33.

On to SERPPEDLRLRLDHLGWVARGTGS, for which the protein stability index came to 2.07.

For the variant SERPLEDLPLRLDHLGWVARGTGS, the protein stability index is 2.1.

Consider SERPLEDLYLRLDHLGWVARGTGS, for which the protein stability index is 2.26.

As to SERPLEDLQLRLDHLGWVARGTGS, the protein stability index stood at 2.26.

As to SERPLEDLFLRLDHLGWVARGTGS, the protein stability index is 1.63.

Take SERPLEDLWLRLDHLGWVARGTGS: the protein stability index came out at 1.64.

In the case of SERPLVDLRLRLDHLGWVARGTGS, the protein stability index was 2.63.

With SERPLIDLRLRLDHLGWVARGTGS, the protein stability index is 1.71.

With SERPLEDLRLRLDHLGWVLRGTGS, the protein stability index turned out to be 1.97.

Regarding SERPLEDLRLRLDHLGWVNRGTGS, the protein stability index amounted to 3.34.

For SERPLEDLRLRLDHLGWVHRGTGS, the protein stability index was 2.9.

Regarding SERPLEDLRLRLDHLGWVERGTGS, the protein stability index turned out to be 2.96.

For the variant SERPLEDLRLRLDHLGWVPRGTGS, the protein stability index turned out to be 3.78.

On to SERPLEDLRLRLHHLGWVARGTGS, for which the protein stability index was 1.49.

In the case of SERPLEDLRLRLSHLGWVARGTGS, the protein stability index was determined as 3.31.

Consider SERPLEDLRLRLVHLGWVARGTGS, for which the protein stability index is 2.88.

In the case of SERPLEDLRLRLDHLGWVAQGTGS, the protein stability index turned out to be 3.32.

Consider SERPLEDLRLRLDHLGWVAMGTGS, for which the protein stability index worked out at 3.12.

Consider SFRPLEDLRLRLDHLGWVARGTGS, for which the protein stability index worked out at 2.9.

As to SNRPLEDLRLRLDHLGWVARGTGS, the protein stability index came out at 1.68.

SYRPLEDLRLRLDHLGWVARGTGS: the protein stability index stood at 2.68.

Regarding SHRPLEDLRLRLDHLGWVARGTGS, the protein stability index is 2.19.

SERPLEDLRLQLDHLGWVARGTGS: the protein stability index turned out to be 2.9.

As to SERPLEDLRLRLDHLGWKARGTGS, the protein stability index was found to be 3.79.

On to SERPLEDLRLRLDHLGWDARGTGS, for which the protein stability index was 4.31.

Regarding SERPLEDARLRLDHLGWVARGTGS, the protein stability index stood at 2.73.

Take SERPLEDERLRLDHLGWVARGTGS: the protein stability index turned out to be 3.52.

Consider SERPLEDLRPRLDHLGWVARGTGS, for which the protein stability index was 1.74.

Turning to SERPLEDLRKRLDHLGWVARGTGS, the protein stability index came out at 2.06.

As to SERPLEDLRFRLDHLGWVARGTGS, the protein stability index was determined as 3.78.

Turning to SERPLEDLRRRLDHLGWVARGTGS, the protein stability index is 2.19.

As for SERPLEDLRLRLDHLWWVARGTGS, the protein stability index was determined as 1.81.

Consider SERPLEDLRLRLDHLVWVARGTGS, for which the protein stability index turned out to be 1.55.

With SERPLEDLRLRLDHAGWVARGTGS, the protein stability index was 2.88.

As for SERPLEDLRLRLDHTGWVARGTGS, the protein stability index came to 2.26.

As for SERPLEDLRLRLDHMGWVARGTGS, the protein stability index amounted to 1.89.

Consider SERPLEDLRLRLDHLGNVARGTGS, for which the protein stability index turned out to be 4.65.

On to SERPLEDLRLRLDHLGMVARGTGS, for which the protein stability index turned out to be 3.49.

On to SERPLEDLRLRRDHLGWVARGTGS, for which the protein stability index stood at 2.16.

As for SERPLEDLRLRKDHLGWVARGTGS, the protein stability index was 3.13.

As to MERPLEDLRLRLDHLGWVARGTGS, the protein stability index was 2.73.

As to NERPLEDLRLRLDHLGWVARGTGS, the protein stability index was 2.57.

As for LERPLEDLRLRLDHLGWVARGTGS, the protein stability index is 1.76.

Turning to PERPLEDLRLRLDHLGWVARGTGS, the protein stability index came to 2.66.

In a further series the parent is B2. The description is as above. To be noted: c terminus: a fixed tail appended.
Turning to KMREKQREQMEQMKQRIAEENIMK, the protein stability index worked out at 4.64.

As for KIREKQREQMEQMKQRIAEENIMK, the protein stability index turned out to be 4.63.

In the case of KEREKQREQMEQMKQRIAEENIMK, the protein stability index came to 5.04.

In the case of KDREKQREQMEQMKQRIAEENIMK, the protein stability index amounted to 4.34.

On to KAREKQREQMEQMKQRIAEENIMK, for which the protein stability index worked out at 4.57.

Regarding KPREKQREQMEQMKQRIAEENIMK, the protein stability index turned out to be 5.22.

For the variant KLREKQREQMEQMKQRIAEENIMK, the protein stability index is 3.67.

For the variant KFREKQREQMEQMKQRIAEENIMK, the protein stability index was determined as 4.45.

Turning to KCREKQREQMEQMKQRIAEENIMK, the protein stability index was determined as 4.76.

For KGREKQREQMEQMKQRIAEENIMK, the protein stability index was found to be 4.55.

Consider KHREKQREQMEQMKQRIAEENIMK, for which the protein stability index is 4.98.

Consider KNREKQREQMEQMKQRIAEENIMK, for which the protein stability index turned out to be 4.94.

With IKREKQREQMEQMKQRIAEENIMK, the protein stability index amounted to 4.98.

Turning to MKREKQREQMEQMKQRIAEENIMK, the protein stability index came out at 4.67.

For LKREKQREQMEQMKQRIAEENIMK, the protein stability index was 4.62.

Consider CKREKQREQMEQMKQRIAEENIMK, for which the protein stability index stood at 4.67.

Turning to QKREKQREQMEQMKQRIAEENIMK, the protein stability index amounted to 5.15.

As for YKREKQREQMEQMKQRIAEENIMK, the protein stability index was determined as 4.95.

For SKREKQREQMEQMKQRIAEENIMK, the protein stability index came out at 5.14.

For AKREKQREQMEQMKQRIAEENIMK, the protein stability index was found to be 4.71.

With WKREKQREQMEQMKQRIAEENIMK, the protein stability index was determined as 4.46.

Turning to GKREKQREQMEQMKQRIAEENIMK, the protein stability index stood at 4.9.

Consider EKREKQREQMEQMKQRIAEENIMK, for which the protein stability index worked out at 5.1.

Take HKREKQREQMEQMKQRIAEENIMK: the protein stability index was determined as 4.95.

Consider TKREKQREQMEQMKQRIAEENIMK, for which the protein stability index is 5.07.

In the case of DKREKQREQMEQMKQRIAEENIMK, the protein stability index was 4.87.

As to RKREKQREQMEQMKQRIAEENIMK, the protein stability index is 4.48.

Turning to FKREKQREQMEQMKQRIAEENIMK, the protein stability index is 4.22.

Take PKREKQREQMEQMKQRIAEENIMK: the protein stability index is 5.52.

In the case of NKREKQREQMEQMKQRIAEENIMK, the protein stability index is 5.42.

Take VKREKQREQMEQMKQRIAEENIMK: the protein stability index amounted to 4.71.
